Measurements reported in patent US20210024620A1.

Assays:
[1] = target: biotinylated human FcRn (p51 subunit residues 24-297 with C-terminal Avi-tag; beta2-microglobulin residues 21-119) (human) (UniProt P55899); test: Biacore SPR, pH 6.0
[2] = target: biotinylated human FcRn (p51 subunit residues 24-297 with C-terminal Avi-tag; beta2-microglobulin residues 21-119) (human) (UniProt P55899); test: Biacore; inverse ratio (RU at pH 7.4 over affinity at pH 6.0)
[3] = target: biotinylated human FcRn (p51 subunit residues 24-297 with C-terminal Avi-tag; beta2-microglobulin residues 21-119) (human) (UniProt P55899); test: Biacore; affinity at pH 6.0 (M^-1) over steady state RU at pH 7.4
[4] = target: biotinylated human FcRn (p51 subunit residues 24-297 with C-terminal Avi-tag; beta2-microglobulin residues 21-119) (human) (UniProt P55899); test: Biacore SPR, pH 7.4, steady state
rat FcRn (rat) [5] = target: rat FcRn (rat) (UniProt P13599); test: Biacore SPR, pH 6.0
Chain of rat FcRn (rat) (P13599 23-298 limits assumed, chain 1 of 2): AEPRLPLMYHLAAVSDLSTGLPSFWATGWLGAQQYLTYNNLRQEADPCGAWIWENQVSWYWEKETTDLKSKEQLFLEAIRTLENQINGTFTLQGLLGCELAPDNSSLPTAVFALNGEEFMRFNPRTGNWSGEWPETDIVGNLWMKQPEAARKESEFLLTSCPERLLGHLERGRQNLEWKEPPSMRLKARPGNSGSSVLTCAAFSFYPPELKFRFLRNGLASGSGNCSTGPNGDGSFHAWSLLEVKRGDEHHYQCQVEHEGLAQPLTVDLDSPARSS
Chain of rat FcRn (rat) (P07151 21-119 limits assumed, chain 2 of 2, further chain): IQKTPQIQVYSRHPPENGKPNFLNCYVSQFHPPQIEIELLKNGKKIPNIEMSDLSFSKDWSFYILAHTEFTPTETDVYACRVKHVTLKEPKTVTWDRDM

[6] = target: FcRn immobilised on the FcRn affinity column (biotinylated cynoFcRn in one experiment, biotinylated hFcRn in another); test: FcRn affinity chromatography, linear pH gradient; species of the immobilised FcRn not given
rat FcRn (rat) [7] = target: rat FcRn (rat) (UniProt P13599); test: Biacore SPR, pH 7.4, 1000 nM antibody
[8] = target: biotinylated human FcRn (human) (UniProt P55899); test: Biacore SPR, pH 7.4, 1000 nM antibody
Chain of biotinylated human FcRn (human) (P55899 24-297 limits assumed, chain 1 of 2): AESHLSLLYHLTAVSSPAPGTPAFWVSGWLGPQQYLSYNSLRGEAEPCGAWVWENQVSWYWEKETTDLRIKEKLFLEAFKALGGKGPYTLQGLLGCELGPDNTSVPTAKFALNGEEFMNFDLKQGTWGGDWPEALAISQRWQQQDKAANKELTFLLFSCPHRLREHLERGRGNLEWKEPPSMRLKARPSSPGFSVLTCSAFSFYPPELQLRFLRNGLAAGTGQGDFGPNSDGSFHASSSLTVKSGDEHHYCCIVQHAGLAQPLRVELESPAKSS
Chain of biotinylated human FcRn (human) (P61769 21-119 limits assumed, chain 2 of 2, further chain): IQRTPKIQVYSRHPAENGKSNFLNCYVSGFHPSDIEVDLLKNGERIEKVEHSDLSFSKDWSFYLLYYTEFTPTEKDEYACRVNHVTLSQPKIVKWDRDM

rat FcRn (rat) [9] = target: rat FcRn (rat) (UniProt P13599); test: Biacore, pH 6.0, apparent KD
[10] = target: biotinylated human FcRn (human) (UniProt P55899); test: Biacore SPR, pH 6.0
[11] = target: biotinylated human FcRn (human) (UniProt P55899); test: Biacore, pH 6.0, apparent KD
[12] = target: biotinylated human FcRn (human) (UniProt P55899); test: Biacore SPR, pH 6.0; remark: listed apart in the source
rat FcRn (rat) [13] = target: rat FcRn (rat) (UniProt P13599); test: Biacore SPR, pH 7.4
[14] = target: biotinylated human FcRn (human) (UniProt P55899); test: Biacore SPR, pH 7.4

Chain of biotinylated human FcRn (p51 subunit residues 24-297 with C-terminal Avi-tag; beta2-microglobulin residues 21-119) (human) (P55899 24-297 limits assumed, chain 1 of 2): as the sequence (P55899 24-297 limits assumed, chain 1 of 2) above
Chain of biotinylated human FcRn (p51 subunit residues 24-297 with C-terminal Avi-tag; beta2-microglobulin residues 21-119) (human) (P61769 21-119 limits assumed, chain 2 of 2, further chain): as the sequence (P61769 21-119 limits assumed, chain 2 of 2, further chain) above

Row | Substance | Ka [1] [M⁻¹] | Ratio (pH 6.0/pH 7.4) [2] | Ratio (pH 6.0/pH 7.4) [3] | Steady State Binding, pH 7.4 (RU) [4] [RU] | Kd (rat FcRn (rat) [5]) [nM] | FcRn affinity column elution pH [6] [pH] | Steady State RU (rat FcRn (rat) [7]) [RU] | Kd (rat FcRn (rat) [9]) [nM] | Kd [10] [nM] | Steady State RU (rat FcRn (rat) [13]) [RU] | Steady State RU [14] [RU] | also measured
1 | mAb1 YTQY (M252Y/T307Q/N434Y) (antibody) | 6.33e+07 | 1.13e-06 | 885000 | 71.5 | – | – | – | – | – | – | – | –
2 | mAb1 T307A (antibody) | – | – | – | – | 132 | 7.61 | 23.1 | 132 | – | – | – | Steady State RU [8]: 5.2 RU
3 | mAb1 YTWF (M252Y/T307W/N434F) (antibody) | 6.54e+07 | 9.57e-07 | 1.04e+06 | 62.6 | – | – | – | – | – | – | – | –
4 | mAb1 T256D (antibody) | – | – | – | – | 86 | 7.82 | 30.4 | 86 | 6700 | 23.2 | – | Kd [11]: 6700 nM; Kd [12]: > 3000 nM
5 | mAb1 Y436N (antibody) | – | – | – | – | 233 | 7.22 | 17.4 | 233 | – | – | – | Steady State RU [8]: 3.6 RU
6 | mAb1 MDWF (T256D/T307W/N434F) (antibody) | 2.81e+07 | 1.68e-06 | 597000 | 47.1 | – | – | – | – | – | – | – | –
7 | mAb1 MDTY (T256D/N434Y) (antibody) | 6.41e+07 | – | 1.73e+06 | 37.1 | 0.6 | – | – | – | 15.6 | 71.6 | 37.1 | koff (rat FcRn (rat) [5]): 0.00025 s⁻¹; kon (rat FcRn (rat) [5]): 413000 M⁻¹ s⁻¹; koff [10]: 0.0285 s⁻¹; kon [10]: 1.83e+06 M⁻¹ s⁻¹
8 | mAb1 METY (T256E/N434Y) (antibody) | 1.6e+07 | – | 597000 | 26.8 | 7.71 | – | – | – | 62.6 | 62.2 | 26.8 | koff (rat FcRn (rat) [5]): 0.00098 s⁻¹; kon (rat FcRn (rat) [5]): 127000 M⁻¹ s⁻¹; koff [10]: 0.0393 s⁻¹; kon [10]: 628000 M⁻¹ s⁻¹
9 | mAb1 MTQF (T307Q/N434F) (antibody) | 2.33e+07 | 1.47e-06 | 681000 | 34.2 | 3.89 | – | – | – | 42.9 | 62.5 | 34.2 | koff (rat FcRn (rat) [5]): 0.0004 s⁻¹; kon (rat FcRn (rat) [5]): 104000 M⁻¹ s⁻¹; koff [10]: 0.0246 s⁻¹; kon [10]: 574000 M⁻¹ s⁻¹
10 | mAb1 YTQF (M252Y/T307Q/N434F) (antibody) | 5.65e+07 | 1.06e-06 | 943000 | 59.9 | – | – | – | – | – | – | – | –
11 | mAb1 MTWY (T307W/N434Y) (antibody) | 4.65e+07 | 8e-07 | 1.25e+06 | 37.2 | 0.62 | – | – | – | 21.5 | 69.6 | 37.2 | koff (rat FcRn (rat) [5]): 0.0003 s⁻¹; kon (rat FcRn (rat) [5]): 480000 M⁻¹ s⁻¹; koff [10]: 0.0317 s⁻¹; kon [10]: 1.48e+06 M⁻¹ s⁻¹
12 | mAb1 MEWY (T256E/T307W/N434Y) (antibody) | 7.04e+07 | 6.62e-07 | 1.51e+06 | 46.6 | – | – | – | – | – | – | – | –
13 | mAb1 T256E (antibody) | – | – | – | – | 113 | 7.63 | 23 | 113 | – | 17 | 4.5 | Steady State RU [8]: 4.8 RU; Kd [12]: > 3000 nM
14 | mAb1 E380C (antibody) | – | – | – | – | 6310 | 7.18 | 27.7 | 6310 | – | – | – | Steady State RU [8]: 5.7 RU
15 | mAb1 MEQY (T256E/T307Q/N434Y) (antibody) | 2.38e+07 | – | 617000 | 38.6 | – | – | – | – | – | – | – | –
16 | mAb1 YTTF (M252Y/N434F) (antibody) | 5.56e+07 | – | 1.27e+06 | 43.8 | 0.29 | – | – | – | 18 | 79.3 | 43.8 | koff (rat FcRn (rat) [5]): 0.00012 s⁻¹; kon (rat FcRn (rat) [5]): 403000 M⁻¹ s⁻¹; koff [10]: 0.023 s⁻¹; kon [10]: 1.27e+06 M⁻¹ s⁻¹; Ratio [2]: 7.88e-07
17 | mAb1 N434P (antibody) | – | – | – | – | 194 | 7.56 | 4.3 | 194 | – | – | – | Steady State RU [8]: 3.5 RU
18 | mAb1 YEWN (M252Y/T256E/T307W) (antibody) | 6.41e+06 | 1.09e-05 | 92100 | 69.6 | – | – | – | – | – | – | – | –
19 | mAb1 K288N (antibody) | – | – | – | – | 190 | 7.39 | 20.4 | 190 | – | – | – | –
20 | mAb1 MTWF (T307W/N434F) (antibody) | 2.62e+07 | – | – | 30.5 | 2.7 | – | – | – | 38.2 | 65.1 | 30.5 | koff (rat FcRn (rat) [5]): 0.00057 s⁻¹

Row | Substance | Ka [1] [M⁻¹] | Ratio (pH 6.0/pH 7.4) [2] | Ratio (pH 6.0/pH 7.4) [3] | Steady State Binding, pH 7.4 (RU) [4] [RU] | Kd (rat FcRn (rat) [5]) [nM] | FcRn affinity column elution pH [6] [pH] | Steady State RU (rat FcRn (rat) [7]) [RU] | Kd (rat FcRn (rat) [9]) [nM] | Kd [10] [nM] | Steady State RU (rat FcRn (rat) [13]) [RU] | Steady State RU [14] [RU] | also measured
21 | mAb1 T307F (antibody) | – | – | – | – | 131 | 7.61 | 21.9 | 131 | – | – | – | Steady State RU [8]: 4.9 RU
22 | mAb1 MEWN (T256E/T307W) (antibody) | 3.1e+06 | – | – | – | 10.6 | – | – | – | 323 | 33 | – | –
23 | mAb1 MEQN (T256E/T307Q) (antibody) | 2e+06 | – | – | – | 10.7 | – | – | – | 499 | 23.4 | – | –
24 | mAb1 T307M (antibody) | – | – | – | – | 279 | 7.4 | 15.3 | 279 | – | – | – | Steady State RU [8]: 4.4 RU
25 | mAb1 YDTF (M252Y/T256D/N434F) (antibody) | 2.96e+07 | 1.95e-06 | 513000 | 57.7 | – | – | – | – | – | – | – | –
26 | mAb1 Y436H (antibody) | – | – | – | – | 131 | 7.33 | 16.3 | 131 | – | – | – | Steady State RU [8]: 3.6 RU
27 | mAb1 YETY (M252Y/T256E/N434Y) (antibody) | 3.34e+07 | 6.77e-07 | 1.48e+06 | 22.6 | – | – | – | – | – | – | – | –
28 | mAb1 METF (T256E/N434F) (antibody) | 1.28e+07 | – | 549000 | 23.3 | 7.53 | – | – | – | 78.2 | 59 | 23.3 | koff (rat FcRn (rat) [5]): 0.00081 s⁻¹; kon (rat FcRn (rat) [5]): 108000 M⁻¹ s⁻¹; koff [10]: 0.0419 s⁻¹; kon [10]: 536000 M⁻¹ s⁻¹; Ratio [2]: 1.82e-06
29 | mAb1 MDTF (T256D/N434F) (antibody) | 3.34e+07 | 8.74e-07 | 1.14e+06 | 29.2 | 1.78 | – | – | – | 29.9 | 63 | 29.2 | koff (rat FcRn (rat) [5]): 0.00039 s⁻¹; kon (rat FcRn (rat) [5]): 218000 M⁻¹ s⁻¹; koff [10]: 0.029 s⁻¹; kon [10]: 968000 M⁻¹ s⁻¹
30 | mAb1 K288D (antibody) | – | – | – | – | 149 | 7.33 | 21.9 | 149 | – | – | – | Steady State RU [8]: 3.8 RU
31 | mAb1 MEWF (T256E/T307W/N434F) (antibody) | 5.62e+07 | 7.46e-07 | 1.34e+06 | 41.9 | – | – | – | – | – | – | – | –
32 | mAb1 Y436W (antibody) | – | – | – | – | 1140 | 7.39 | 10.3 | 1140 | – | – | – | Steady State RU [8]: 3.7 RU
33 | mAb1 MEQF (T256E/T307Q/N434F) (antibody) | 142000 | – | – | – | – | – | – | – | – | – | – | –
34 | mAb1 MDQF (T256D/T307Q/N434F) (antibody) | 6.62e+06 | – | – | 55.3 | – | – | – | – | – | – | – | –
35 | mAb1 MDQY (T256D/T307Q/N434Y) (antibody) | 3.69e+07 | – | 747000 | 49.4 | – | – | – | – | – | – | – | Ratio [2]: 1.34e-06
36 | mAb1 YTQN (M252Y/T307Q) (antibody) | 3.6e+06 | 2.94e-06 | 340000 | 10.6 | 4.11 | – | – | – | 278 | 49.2 | 10.6 | koff (rat FcRn (rat) [5]): 0.00105 s⁻¹; kon (rat FcRn (rat) [5]): 255000 M⁻¹ s⁻¹; koff [10]: 0.096 s⁻¹; kon [10]: 345000 M⁻¹ s⁻¹
37 | mAb1 N434F (antibody; other documents disagree on this pair) | – | – | – | – | – | – | – | – | 165 | – | 22.2 | Steady State RU [8]: 20.1 RU; Kd [11]: 165 nM
38 | mAb1 YDWN (M252Y/T256D/T307W) (antibody) | 1.01e+07 | 2.56e-06 | 390000 | 25.9 | – | – | – | – | – | – | – | –
39 | mAb1 MTQY (T307Q/N434Y) (antibody) | 3.09e+07 | 1.24e-06 | 805000 | 38.4 | 4.11 | – | – | – | 32.4 | 63 | 38.4 | koff (rat FcRn (rat) [5]): 0.00048 s⁻¹; kon (rat FcRn (rat) [5]): 116000 M⁻¹ s⁻¹; koff [10]: 0.0202 s⁻¹; kon [10]: 622000 M⁻¹ s⁻¹
